Assay results from patent US20250145706A1 (SINABIOSOLUTION, published 2025).
Substitutions are numbered along the chain they refer to.

B1: HC0-LC0 (antibody, human IgG1, kappa, V domains shown)
VH: QVQLQQSGPGLVQPSQSLSITCTVSGFSLTSYGIHWVRQSPGKGLEWLGVIWRGGGTDSNAAFMSRLSITKDNSKSQVFFKMNSLQADDTAIYYCARSRYDEEESMNYWGQGTSVTVSS
VL: QIVLTQSPASLSASVGETVTITCRASGNIHSYLAWYQQKQGKSPQLLVYNAKTLADGVPSRFSGSGSGTQYSLKINSLQPEDFGSYYCQHFWNTPPTFGAGTKLELKR
notes: Chimeric: mAb01-01 VH/VL on human IgG1 / human Ig kappa constant domains; also called chimeric antibody HC0-LC0; HC01 LC01
B2: HC7-LC6 (antibody, human IgG1, kappa, V domains shown)
VH: QVQLQESGPGLVKPSETLSLTCTVSGFSLTSYGIHWIRQSPGRGLEWIGVIWRGGGTDSNAAFMSRITISRDTSKTQVSLKLGSVTAADTAIYYCARSRYDEEESMNYWGQGTSVTVSS
VL: EIVLTQSPSSLSASVGDSVTITCRASGNIHSYLAWYQQKPGKAPKLLIYNAKTLADGVPSRFSGSGSGTQYTLTISSLQPEDFATYYCQHFWNTPPTFGAGTKLELKR
notes: Humanized IgG1 / kappa
B3: HC7-LC8 (antibody, human IgG1, kappa, V domains shown)
VH: B2 VH
VL: EIVLTQSPATLSLSPGERATLSCRASGNIHSYLAWYQQKPGQAPRLLIYNAKTLADGIPARFSGSGSGTDYTLTISSLEPEDFASYYCQHFWNTPPTFGAGTKLELKR
notes: Humanized IgG1 / kappa
B4: HC7-LC9 (antibody, human IgG1, kappa, V domains shown)
VH: B2 VH
VL: B3 VL with A9G, A60D, S77R, S85V
notes: Humanized IgG1 / kappa
B5: HC7-LC7 (antibody, human IgG1, kappa, V domains shown)
VH: B2 VH
VL: B2 VL with E1Q, V3Q, S10F, K45Q, Q70E
notes: Humanized IgG1 / kappa

Key:
[1] = biological target: T1, soluble recombinant version of the IGLV3-21^R110-harboring B-cell receptor (monomeric human IgM, 170.5 kDa) (human); assay: BLI (Octet), antibody captured on anti-human IgG Fc sensor, soluble BCR as analyte, 1:1 model
T1 construct: Produced in 293-HEK cells by transient expression as monomeric human IgM; It was the analyte in solution in the BLI assay; also called soluble IGLV3-21^R110 B-cell receptor; soluble BCR-fragment
T1 sequence (heavy, as listed by the source limits assumed, chain 1 of 2): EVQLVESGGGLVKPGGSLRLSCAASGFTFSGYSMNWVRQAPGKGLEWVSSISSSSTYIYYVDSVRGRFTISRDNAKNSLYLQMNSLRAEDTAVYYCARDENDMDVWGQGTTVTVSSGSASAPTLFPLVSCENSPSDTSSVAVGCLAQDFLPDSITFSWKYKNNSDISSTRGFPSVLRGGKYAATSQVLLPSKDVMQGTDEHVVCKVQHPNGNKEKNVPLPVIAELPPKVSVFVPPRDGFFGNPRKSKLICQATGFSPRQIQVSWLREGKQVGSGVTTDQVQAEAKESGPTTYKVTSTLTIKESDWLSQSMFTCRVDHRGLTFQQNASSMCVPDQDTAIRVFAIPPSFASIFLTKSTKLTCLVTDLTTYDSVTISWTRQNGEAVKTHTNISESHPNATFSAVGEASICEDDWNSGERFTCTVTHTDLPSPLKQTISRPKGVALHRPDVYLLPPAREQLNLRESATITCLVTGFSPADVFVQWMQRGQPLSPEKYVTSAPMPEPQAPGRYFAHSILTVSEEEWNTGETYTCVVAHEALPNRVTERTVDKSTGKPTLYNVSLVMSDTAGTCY
T1 sequence (light, as listed by the source limits assumed, chain 2 of 2): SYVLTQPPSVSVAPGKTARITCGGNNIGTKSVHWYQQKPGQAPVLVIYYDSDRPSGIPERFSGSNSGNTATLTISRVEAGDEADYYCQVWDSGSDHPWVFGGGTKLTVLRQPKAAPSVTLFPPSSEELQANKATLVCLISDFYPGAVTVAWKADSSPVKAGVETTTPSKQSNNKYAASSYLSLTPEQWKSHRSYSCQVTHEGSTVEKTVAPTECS
Protocol: (§1) Kinetic assays were performed by first immobilizing the anti IGLV3-21^R110 antibodies onto biosensors through an indirect capturing reagent, anti-human IgG Fc antibody. Anti IGLV3-21^R110 antibodies were loaded at a concentration of […] to generate an anti IGLV3-21^R110 antibody capture level of between 0.30 and 0.34 nm. […] The anti IGLV3-21^R110 antibody capture biosensors were then submerged in wells containing the different concentrations of the soluble BCR-fragment for 900 seconds (association stage) followed by a dissociation step of 1200 seconds in running buffer. Steps were performed at a constant shake speed of 1000 rpm. All reagents were used as described by the manufacturer. Sensorgrams were generated after double reference correction (buffer and blank sensors) to compensate for both the natural dissociation of the capture anti IGLV3-21^R110 antibody and also non-specific binding of the soluble BCR-fragment to the sensor surface. […] (KD) were calculated based on the ratio of association (kₐ) and dissociation rate (kd) constants, obtained by fitting sensorgrams with a first order 1:1 binding model using the Fortebio Data Analysis software (Satorius).

[2] = biological target: T1, soluble recombinant version of the …; assay: BLI (Octet), reference HC0-LC0
Protocol: as §1
For the KD values of all humanized antibodies, see Table 3.

Binder	Kd [1]	fold of the dissociation constant against chimeric antibody HC0-LC0 [2]
B1	0.121 nM	–
B2	0.175 nM	≤ 2 fold
B3	0.249 nM	–
B4	0.313 nM	–
B5	0.269 nM	–
